The record followed here is paper PMC9030869, “Interplay between Alba and Cren7 Regulates Chromatin Compaction in Sulfolobus solfataricus” (Biomolecules, 2022).

The assay addresses T1, Sulfolobus solfataricus Alba1 (S. solfataricus, UniProt P60849 1-97).
T1 construct: Alba1 of Sulfolobus solfataricus; construct obtained from Dr. Malcolm White (University of St. Andrews); It was obtained from Dr. Malcolm White; source: E. coli BL21(DE3), purified (HiTrap SPHP cation exchange, size exclusion chromatography)
T1 sequence (looked up): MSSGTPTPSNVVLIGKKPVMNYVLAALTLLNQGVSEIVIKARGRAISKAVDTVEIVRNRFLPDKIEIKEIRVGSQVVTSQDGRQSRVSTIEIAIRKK
In words: SEC; equimolar amounts (~100 µM) of Alba1 and Alba2 mixed, then run on a TSKgel G3000SWxl column with 150 mM NaCl in Buffer A as mobile phase. The note with it: both partners purified.

B1: Sulfolobus solfataricus Alba2 (natural protein, S. solfataricus, UniProt Q97ZF4 1-89, looked up)
chain: MTEKLNEIVVRKTKNVEDHVLDVIVLFNQGIDEVILKGTGREISKAVDVYNSLKDRLGDGVQLVNVQTGSEVRDRRRISYILLRLKRVY
notes: Alba2 of Sulfolobus solfataricus, homologue of Alba1; construct obtained from Dr. Malcolm White (University of St. Andrews); It was obtained from Dr. Malcolm White; source: E. coli BL21(DE3), purified (HiTrap SPHP cation exchange, size exclusion chromatography)
In the case of B1, the binding result is reported as “binds”.
